B1: S2P6 mAb (antibody, V domains shown)
VH: EVQLVQSGAEVKKPGASVKVSCKASGYTFTSQYMHWVRQAPGQGLEWIGIINPSGVHTSYAQKFQGRVTLTRDTSTSTLYMELSSLRSEDTAVYYCARGSPKGAFDYWGQGTLVTVSS
VL: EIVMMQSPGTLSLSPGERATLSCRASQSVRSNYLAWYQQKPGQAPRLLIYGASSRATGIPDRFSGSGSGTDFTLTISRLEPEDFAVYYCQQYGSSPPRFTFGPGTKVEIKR
B2: DH1498 (antibody, V domains shown)
VH: QVQLQESGPGLVKPSETLSLTCAVSGGSVSSDTYYWSWIRQPPGKGLEWIGYIYNSGSTNYNPSLKSRVTISVDTSKSQFSLNLGSVTAADTAVYYCAREGAGTYPPKNDAFDIWGQGTLVTVSS
VL: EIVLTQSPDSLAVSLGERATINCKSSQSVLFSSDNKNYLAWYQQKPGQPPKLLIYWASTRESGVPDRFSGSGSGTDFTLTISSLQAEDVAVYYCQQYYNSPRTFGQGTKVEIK
B3: DH1501.2 (antibody, V domains shown)
VH: EVQLVESGAEVKKPGASVRLSCKASGDTFNNKYVHWVRQAPGQGLEWMGLINPSGSGTAFAQKFQGRVSMTRDTSTRTVYLGLTSLTYEDTAVYYCARMSRAGTFDIWDQGTMVTVSS
VL: EIVLTQSPGTLSLSPGDRATLSCRASENVGTSYLAWYQQKPGQAPRLLISGTSSRATGVPDRFSGSGSGRDFTLTISRLEPEDFAVYYCQQYGSSPPRYTFGQGTKLDMK
B4: DH1501.1 (antibody, V domains shown)
VH: EVQLVESGAEVKKPGASVRVSCKASGFTFTDHYMHWVRQAPGQGLEWMGLINPTGVNTFYAQNFRGRVTMTRDTSTKTDYLEVRSLTSQDTAMYYCARMSRYGAFDIWGQGTMVTVSL
VL: EIVLTQSPGTLSLSPGERATLSCRASQSVGSGYLAWYQQKPGQAPRLLIYGASVRATGIPDRFSGSGSGTDFSLTINRVEPEDFAMYYCQNYGSSPPRYTFGQGTKLEIK

Legend:
[1] = target: T1, S2hlx-Ex6; test: ELISA, coated antigen, mAb titrated
T1 construct: backbone grafting design
T1 chain: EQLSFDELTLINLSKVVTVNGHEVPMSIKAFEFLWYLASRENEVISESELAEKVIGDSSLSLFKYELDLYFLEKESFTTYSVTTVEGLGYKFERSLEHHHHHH

[2] = target: T2, SARS-CoV-2 D614G spike on infected cells (SARS-CoV-2, UniProt P0DTC2 14-1273); test: flow cytometry, infected cells, % infected cells bound
T2 construct: whole, on cells

[3] = target: T2, SARS-CoV-2 D614G spike on infected cells; test: flow cytometry on infected Vero E6 cells

| Binder | binding result [3] | further results |
| --- | --- | --- |
| B1 |  | EC50 (read off the curve) [1]: ~0.1 µg/mL |
| B2 |  | binding result [2]: no binding (tested: 50 µg/mL) |
| B3 | binds |  |
| B4 | binds |  |
